This sample holds only a part of the variants without activity.
B1: TPR 5TU (parent)
chain: GGAUCUUCUCGAUCUAACAAAAAAGACAAAUCUGCCACAAAGCUUGAGAGCAUCUUCGGAUGCAGAGGCGGCAGCCUUCGGUGGCGCGAUAGCGCCAACGUUCUCAACUAUGACACGCAAAACGCGUGCUCCGUUGAAUGGAGUUUAUCAUG

Variants of: B1
Experiment: polymerase ribozyme fitness, log enrichment relative to wild type (log ratio); higher = more active; in vitro selection for triplet polymerase activity
Outline: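 Genotype fitness is the logarithm of its enrichment divided by wild-type enrichment, using inverse-variance-weighted averages of replicates. That logarithm is base 2. Enrichment was measured by Illumina sequencing of input and output libraries from one triplicate in vitro selection round, with frozen incubation at −7 °C, on PCR-built, transcribed mutant libraries of each subunit of a heterodimeric triplet polymerase ribozyme, retaining genotypes with ≥10 input reads and ≥1 read per output.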

Row | Variant | polymerase ribozyme fitness (log ratio)
1 | G25C A52G U56A A60C G67A C99U C116U G133C U135A | ≤ -4.2
2 | A24U G42A U53A U90G A107U C108A U145C | ≤ -4.2
3 | A23G A40U C76U C87U A89G G133C | ≤ -4.2
4 | G25U C51U A73U C76U G83U C95U C96U G100U C118G A122G | ≤ -4.2
5 | A23G U134A | ≤ -4.2
6 | A24U U53A | -0.894
7 | A24G U56A A121C G133C | ≤ -4.2
8 | A24C A39G | -3.42
9 | G25U G86A | -3.14
10 | A23G G94U U148C | ≤ -4.2
11 | A24G A30G A52C U53G G59A C87U G92U G128A U139A | ≤ -4.2
12 | A24U G141A | 0.58
13 | A24C G58A G112U A122G | ≤ -4.2
14 | A26C A29U C54G A91G A97U | ≤ -4.2
15 | G25A C87G A98U | ≤ -4.2
16 | A24C G59U A73G A150U | -3.13
17 | G25C C99U C114G C118U | ≤ -4.2
18 | A23U C54G U61A C72A G86A G141A | ≤ -4.2
19 | A23U G34A U53G G74A U139A | ≤ -4.2
20 | G25A U31A C51U G81C G84U G152U | ≤ -4.2
21 | G25C A37C C76A U101G U148G | ≤ -4.2
22 | A24C C51U C54G G74U C85G A97U | -4.18
23 | G25U G50U C76A C85U G86C G133C | ≤ -4.2
24 | A23U A29U G50A C69G A89C G112C A120U A122U | ≤ -4.2

Row | Variant | polymerase ribozyme fitness (log ratio)
25 | A22U G152A | -2.39
26 | A23U U139A | ≤ -4.2
27 | A24U C36U A60G G80A G94C | -3.57
28 | A24C G34C C35A A122G U134A G143C | -4.11
29 | G25A A41U C43U C54U U55A G70A G92A G133U U139G | ≤ -4.2
30 | A24C C96G C118A | -4.19
31 | A23C A29G C96G U139G | -4.19
32 | A23C G34U | -3.82
33 | A22U U53C G92U | -0.0274
34 | A26C C27G A52C G80U A89G | ≤ -4.2
35 | A24C G46A C57G C75G A89G C96G | ≤ -4.2
36 | A22U U55G | -0.206
37 | A23C G25A C32A C63U C87A | ≤ -4.2
38 | A23C G42C U77A G80C U101G | ≤ -4.2
39 | A24C A29G G46U C85U C129G C131A G141C | ≤ -4.2
40 | A23U C63A C114G | ≤ -4.2
41 | A23U G70U U78A G94A C95U C114U | ≤ -4.2
42 | A24U U44G A66C G143A | -4.09
43 | G25A A49G C95U | -2.94
44 | G25C U44A A66G G71A A91U C131U C132G | ≤ -4.2
45 | G25A U33C C35A A73C A91G G117A C118U | ≤ -4.2
46 | A23U C79U U101G G141C | ≤ -4.2
47 | G25A C96G C99G G152U | ≤ -4.2
48 | G25C C99U | -3.13

Row | Variant | polymerase ribozyme fitness (log ratio)
49 | A24C C35U C87G A98U C103U C125G | ≤ -4.2
50 | A24G A120U | -3.9
51 | A24U C93U A98G C132U A142G | -4.17
52 | A24C C125U | ≤ -4.2
53 | A23U G58C G68A C79G A150G | ≤ -4.2
54 | A24G C27G A30U G48C G92U | ≤ -4.2
55 | A24U A47C G48C C85G A91G | ≤ -4.2
56 | A23C C131G U134G | ≤ -4.2
57 | A22U U82C C93G C103G U151G | ≤ -4.2
58 | A26C G59A C76U G84U G88A G126A | ≤ -4.2
59 | A26C C87A | ≤ -4.2
60 | A24C A41U C54A | ≤ -4.2
61 | G25U C87U A122G | -3.5
62 | G25U A28U G50A G83C C87G A89U A91G | ≤ -4.2
63 | A24G G25U C75G G80A C85G U130A A142C | ≤ -4.2
64 | G25A U44G U77A G83U U104A | ≤ -4.2
65 | G25C C54U C57U C75U G126A | -2.79
66 | A24U C38A | 0.851
67 | G25A C54A G58A G84A A120G G126U | -3.36
68 | A23C G58A C96U A106G | ≤ -4.2
69 | A26C G94C | -1.54
70 | A26C G94A | -1.36
71 | A23C C79U C96U C99A | ≤ -4.2
72 | A23G C76G C87U A119G G140U | ≤ -4.2

Row | Variant | polymerase ribozyme fitness (log ratio)
73 | A23G U56A | -2.39
74 | A23G G59U C75G U90C C129A | ≤ -4.2
75 | A24U C93U | -1.27
76 | A24U C93U C125G G133A A142G A150U | ≤ -4.2
77 | G25U A29U C38U G70C | ≤ -4.2
78 | A24U G50U G143C | -2.91
79 | A24C G58C C72G U130G | ≤ -4.2
80 | A24C G48A G84U A106U A142U | ≤ -4.2
81 | A24U A91G A97G A115U | -4.19
82 | G25U A98U | -3.03
83 | A22U G70U C87A A119U | ≤ -4.2
84 | A24G C43U A73G G83U U101G C105G U127C G140C | ≤ -4.2
85 | G25U G84U G117A | -3.67
86 | A23G A37G C95A C118G G140A | ≤ -4.2
87 | A24G G92C | -2.81
88 | A24U C36G U111C C116A | ≤ -4.2
89 | G25U G58U G84A | -2.21
90 | A24U C35U C96U C105U A147G | -3.09
91 | A24U C57U G62A | -0.097
92 | A24U C79A | -4.12
93 | A23G C27A C32U G50C A73G C85G | ≤ -4.2
94 | A24C C54G G74A U82A A89U U146A | ≤ -4.2
95 | A23U G80A A150G | ≤ -4.2
96 | A24C G141C | -3.54

Row | Variant | polymerase ribozyme fitness (log ratio)
97 | A23G C85A | -2.98
98 | A23C C54G A64G C125A U148C C149A A150U | ≤ -4.2
99 | A26C U33A G92C C105G | ≤ -4.2
100 | A26C U55G G59C | -2.72
101 | A22U U55A C57A C85G | -1.44
102 | A24C A66C G71C G84U | ≤ -4.2
103 | A23G C27U C93G C103G A150G | ≤ -4.2
104 | A23G G58U C87A A115U | ≤ -4.2
105 | A23G G34U G141C | ≤ -4.2
106 | A23C C118U U144A | ≤ -4.2
107 | A23G A47C C103G A122G U145A | ≤ -4.2
108 | G25U A52U U145C | -3.91
109 | A23U C51U C76A C96G C103G A115G | ≤ -4.2
110 | A23G A29U G59A G94A | ≤ -4.2
111 | A22U G124A | 0.0485
112 | A22U U53A | -1.05
113 | A24U A66C A73G C79G C87A G88U C116A C118A | ≤ -4.2
114 | A23C C85A G88A A120U U146G | ≤ -4.2
115 | A24U C96A | 0.632
116 | G25U A49U G50C U61A C95U | -3.07
117 | A24G A49C G92U A122C | ≤ -4.2
118 | G25C C57A G83A G86U C96G A106G U127G | ≤ -4.2
119 | A24U G65U A91C U104A A110G G140A U144G | ≤ -4.2
120 | A24U C57A G83U A97U U146A | -1.51

Row | Variant | polymerase ribozyme fitness (log ratio)
121 | A24U C54A | -0.922
122 | G25U G92C A115G | -3.33
123 | A23U C76G C93G | ≤ -4.2
124 | A23U C35A A60G G84C G86A C96A G140U | ≤ -4.2
125 | A24C C69A C105A C114U A122U | ≤ -4.2
126 | G25C C57U | -2.94
127 | A24U A39G C51U C57A C85U C129G | ≤ -4.2
128 | A24C A47C C57U A121U | ≤ -4.2
129 | A26C U78C | -3.76
130 | G25U U31A A64C U90A G124A | ≤ -4.2
131 | A24U C87G C96U | ≤ -4.2
132 | A26C A29G C51U U53G G68A A142C A150G G152A | ≤ -4.2
133 | A24G A28U U55A G140A | ≤ -4.2
134 | A23C A41C C54G U77A A91G C105G G126A G136A A137G | ≤ -4.2
135 | G25A C79G U90A U104A G117U | ≤ -4.2
136 | G25C A41C C96G A110G U148C | ≤ -4.2
137 | G25U C43U U61A G84U C85A A89U C93A C103A G141U | ≤ -4.2
138 | A24U C35A U45G A47C G48C A64C C93G | ≤ -4.2
139 | A23C A37C U53A A64C U90C C96G U101G | ≤ -4.2
140 | A23C A40U G48U G94C C99G U144A | ≤ -4.2
141 | A23U A73U G88C | ≤ -4.2
142 | A23U A106G A138U | ≤ -4.2
143 | A24G C35U | -3.09
144 | A24U G84C C114U G140U | ≤ -4.2

Row | Variant | polymerase ribozyme fitness (log ratio)
145 | A24U C96G G143U A147U | -3.7
146 | A23G C54G G80C C105U C108U A113C C132G | ≤ -4.2
147 | A23C A110G U111A | ≤ -4.2
148 | G25C U53G C57A A120C G128A | ≤ -4.2
149 | A24G A26U A39U U53A C57U G59A G68U G86A C99A A106U | -4.18
150 | A23U U44G C76A C79U U82A G86A G143A | ≤ -4.2
151 | A26C C32U G48C G143A | ≤ -4.2
152 | A24C C79U | ≤ -4.2
153 | A23C C35A C87A | -4.05
154 | G25U G50U A73G U101G | -2.68
155 | A24U A47U C96U C116A G133A C149G | ≤ -4.2
156 | A22U U55G C57U | 0.196
157 | A23U G42U G58C G65U C75G G141U | ≤ -4.2
158 | A24U C27G C38U C87U A91G C93G G133U | ≤ -4.2
159 | A23G A41G U55A U90C C96G C99A | ≤ -4.2
160 | A24G G83C U101G C123A G141U | ≤ -4.2
161 | A23U A47G U55A | ≤ -4.2
162 | A23G A49C G65C G80U G86U C99A | ≤ -4.2
163 | G25A G68U U78C A91G C114G | ≤ -4.2
164 | A24G G71C G83C C87U C96U C149A | ≤ -4.2
165 | A26C A30G U45A A60G A97U U104G G143U | ≤ -4.2
166 | A26C A60U U104C | -3.72
167 | A24U G25C A37U G65C U90A C116G C131A G141C | ≤ -4.2

— the RNAGym collection of RNA variant scans (doi:10.1073/pnas.2313332121)
